B1: CPEB3 Ribozyme (parent)
chain: GGGGGCCACAGCAGAAGCGUUCACGUCGCGGCCCCUGUCAGAUUCUGGUGAAUCUGCGAAUUCUGCUGU

Variants of: B1
Assay: self-cleavage, relative activity (ratio to wild type); higher = more cleavage; co-transcriptional

| Variant | self-cleavage |
| --- | --- |
| G1U A59G | 0.148 |
| G1U A59C | 0.0892 |
| G1U A59U | 0.114 |
| G1U C39A | 0.123 |
| G1U C39U | 0.0961 |
| G1C G65U | 0.212 |
| G1C C34U | 0.236 |
| G1C C34A | 0.152 |
| G1C C34G | 0.159 |
| G1U C7A | 0.0722 |
| G1U C7G | 0.127 |
| G1C U36C | 0.177 |
| G1C U36A | 0.0531 |
| G1A G47C | 0.0423 |
| G1A G47A | 0.104 |
| G1A G47U | 0.104 |
| G1A U69A | 0.0727 |
| G1A U69C | 0.187 |
| G1A U69G | 0.23 |
| G1A A42G | 0.0249 |
| G1A A15C | 0.113 |
| G1A A15U | 0.105 |
| G1A A15G | 0.159 |
| G1C C39U | 0.227 |

| Variant | self-cleavage |
| --- | --- |
| G1C C39G | 0.217 |
| G1C G17C | 0.0857 |
| G1C G17U | 0.155 |
| G1C G17A | 0.124 |
| G1U A8U | 0.0804 |
| G1U A8C | 0.0263 |
| G1U C45U | 0.152 |
| G1U C45G | 0.134 |
| G1C A40C | 0.231 |
| G1C A40G | 0.268 |
| G1C G50U | 0.169 |
| G1C U38C | 0.231 |
| G1C U38G | 0.112 |
| G1A G25C | 0.0807 |
| G1A A16G | 0.0235 |
| G1C C57A | 0.116 |
| G1C C57G | 0.104 |
| G1C U46C | 0.248 |
| G1A C39U | 0.0531 |
| G1A U36G | 0.0321 |
| G1A U36C | 0.0487 |
| G1A U36A | 0.0492 |
| G1A C45U | 0.0709 |
| G1A C45G | 0.0789 |

| Variant | self-cleavage |
| --- | --- |
| G1A G11U | 0.0575 |
| G1A G11A | 0.136 |
| G1C A60C | 0.0756 |
| G1C A60G | 0.273 |
| G1A G41C | 0.0331 |
| G1A G41U | 0.0947 |
| G1A C22U | 0.0977 |
| G1U C29A | 0.111 |
| G1U C29G | 0.0597 |
| G1U C29U | 0.0573 |
| G1A U67C | 0.121 |
| G1C C45U | 0.24 |
| G1C C45A | 0.252 |
| G1C C45G | 0.182 |
| G1A U46A | 0.134 |
| G1A U46G | 0.0453 |
| G1A U46C | 0.0905 |
| G1C G58A | 0.172 |
| G1C G58C | 0.267 |
| G1C G58U | 0.248 |
| G1A | 0.104 |
| G1U | 0.11 |
| G1C | 0.219 |
| G1C C35U | 0.167 |

| Variant | self-cleavage |
| --- | --- |
| G1C C35G | 0.161 |
| G1C C35A | 0.069 |
| G1U A52U | 0.129 |
| G1U A52G | 0.167 |
| G1C U26C | 0.162 |
| G1C U26G | 0.152 |
| G1C A10G | 0.21 |
| G1A U38C | 0.0492 |
| G1U C32U | 0.157 |
| G1U C32A | 0.201 |
| G1U C32G | 0.09 |
| G1A G58C | 0.126 |
| G1A G58A | 0.0724 |
| G1A C7G | 0.0966 |
| G1C C27G | 0.124 |
| G1C C27A | 0.211 |
| G1C C27U | 0.131 |
| G1C C63U | 0.164 |
| G1C C63A | 0.199 |
| G1A G17U | 0.047 |
| G1A G17A | 0.0759 |
| G1A A60C | 0.0326 |
| G1C U21G | 0.244 |
| G1C U21C | 0.184 |

| Variant | self-cleavage |
| --- | --- |
| G1A A23U | 0.184 |
| G1A C57G | 0.0693 |
| G1A C57U | 0.0557 |
| G1A C57A | 0.0488 |
| G1C C54G | 0.321 |
| G1U A10U | 0.127 |
| G1A C33U | 0.0123 |
| G1A C33G | 0.0474 |
| G1U A60C | 0.0797 |
| G1A U44C | 0.135 |
| G1A U44A | 0.0757 |
| G1C G30A | 0.192 |
| G1C G30C | 0.174 |
| G1A G30A | 0.0887 |
| G1A G30C | 0.0357 |
| G1A C29G | 0.0465 |
| G1A C29U | 0.0423 |
| G1A G68C | 0.222 |
| G1A G68A | 0.136 |
| G1A G68U | 0.159 |
| G1A C32U | 0.12 |
| G1A C32G | 0.0331 |
| G1A C32A | 0.0486 |
| G1A C63G | 0.0342 |

| Variant | self-cleavage |
| --- | --- |
| G1A C63U | 0.0639 |
| G1A C63A | 0.1 |
| G1C U67C | 0.19 |
| G1C U67A | 0.193 |
| G1U C34A | 0.184 |
| G1U C34G | 0.123 |
| G1C G4A | 0.225 |
| G1C G4C | 0.216 |
| G1A A40C | 0.028 |
| G1A A40U | 0.0506 |
| G1A C35A | 0.0188 |
| G1A C35U | 0.0752 |
| G1C C24A | 0.0947 |
| G1A C66G | 0.0767 |
| G1A G48U | 0.045 |
| G1A G48A | 0.0895 |
| G1A G65A | 0.0429 |
| G1A G65C | 0.0479 |
| G1A G65U | 0.106 |
| G1U C18G | 0.115 |
| G1U C18U | 0.104 |
| G1U A51U | 0.148 |
| G1U A51G | 0.126 |
| G1U A51C | 0.114 |

| Variant | self-cleavage |
| --- | --- |
| G1C G56C | 0.186 |
| G1C G56A | 0.223 |
| G1C U44G | 0.151 |
| G1C U44A | 0.231 |
| G1A U20A | 0.0538 |
| G1A U20G | 0.0728 |
| G1A U20C | 0.0855 |
| G1A A51U | 0.136 |
| G1A U26A | 0.077 |
| G1A U26C | 0.138 |
| G1A U26G | 0.0674 |
| G1C U69A | 0.182 |
| G1C C66A | 0.226 |
| G1C C66U | 0.172 |
| G1A C6U | 0.105 |
| G1A C6A | 0.0849 |
| G1A C6G | 0.0647 |
| G1A U61C | 0.0531 |
| G1U A13U | 0.122 |
| G1C C22A | 0.0757 |
| G1C C22G | 0.0703 |
| G1U A16C | 0.022 |
| G1C U43G | 0.205 |

— the RNAGym collection of RNA variant scans (doi:10.7554/elife.80360)
